# Source: FireProtDB
# “And” between values parts separate entries of the source, which are not always exact repeats. Equal values may be shown once.
# B1: Glutathione S-transferase Mu 1, P04905 (parent)
# chain: MPMILGYWNVRGLTHPIRLLLEYTDSSYEEKRYAMGDAPDYDRSQWLNEKFKLGLDFPNLPYLIDGSRKITQSNAIMRYLARKHHLCGETEEERIRADIVENQVMDNRMQLIMLCYNPDFEKQKPEFLKTIPEKMKLYSEFLGKRPWFAGDKVTYVDFLAYDILDQYHIFEPKCLDAFPNLKDFLARFEGLKKISAYMKSSRYLSTPIFSKLAQWSNK
# B2: Tissue factor, P13726 (parent)
# chain: METPAWPRVPRPETAVARTLLLGWVFAQVAGASGTTNTVAAYNLTWKSTNFKTILEWEPKPVNQVYTVQISTKSGDWKSKCFYTTDTECDLTDEIVKDVKQTYLARVFSYPAGNVESTGSAGEPLYENSPEFTPYLETNLGQPTIQSFEQVGTKVNVTVEDERTLVRRNNTFLSLRDVFGKDLIYTLYYWKSSSSGKKTAKTNTNEFLIDVDKGENYCFSVQAVIPSRTVNRKSTDSPVECMGQEKGEFREIFYIIGAVVFVVIILVIILAISLHKCRKAGVGQSWKENSPLNVS
# B3: Elongation factor Ts, P43895 (parent)
# chain: MSQMELIKKLREATGAGMMDVKRALEDAGWDEEKAVQLLRERGAMKAAKKADREAREGIIGHYIHHNQRVGVLVELNCETDFVARNELFQNLAKDLAMHIAMMNPRYVSAEEIPAEELEKERQIYIQAALNEGKPQQIAEKIAEGRLKKYLEEVVLLEQPFVKDDKVKVKELIQQAIAKIGENIVVRRFCRFELGA
# B4: Copper-transporting ATPase 2, P35670 (parent)
# chain: MPEQERQITAREGASRKILSKLSLPTRAWEPAMKKSFAFDNVGYEGGLDGLGPSSQVATSTVRILGMTCQSCVKSIEDRISNLKGIISMKVSLEQGSATVKYVPSVVCLQQVCHQIGDMGFEASIAEGKAASWPSRSLPAQEAVVKLRVEGMTCQSCVSSIEGKVRKLQGVVRVKVSLSNQEAVITYQPYLIQPEDLRDHVNDMGFEAAIKSKVAPLSLGPIDIERLQSTNPKRPLSSANQNFNNSETLGHQGSHVVTLQLRIDGMHCKSCVLNIEENIGQLLGVQSIQVSLENKTAQVKYDPSCTSPVALQRAIEALPPGNFKVSLPDGAEGSGTDHRSSSSHSPGSPPRNQVQGTCSTTLIAIAGMTCASCVHSIEGMISQLEGVQQISVSLAEGTATVLYNPSVISPEELRAAIEDMGFEASVVSESCSTNPLGNHSAGNSMVQTTDGTPTSVQEVAPHTGRLPANHAPDILAKSPQSTRAVAPQKCFLQIKGMTCASCVSNIERNLQKEAGVLSVLVALMAGKAEIKYDPEVIQPLEIAQFIQDLGFEAAVMEDYAGSDGNIELTITGMTCASCVHNIESKLTRTNGITYASVALATSKALVKFDPEIIGPRDIIKIIEEIGFHASLAQRNPNAHHLDHKMEIKQWKKSFLCSLVFGIPVMALMIYMLIPSNEPHQSMVLDHNIIPGLSILNLIFFILCTFVQLLGGWYFYVQAYKSLRHRSANMDVLIVLATSIAYVYSLVILVVAVAEKAERSPVTFFDTPPMLFVFIALGRWLEHLAKSKTSEALAKLMSLQATEATVVTLGEDNLIIREEQVPMELVQRGDIVKVVPGGKFPVDGKVLEGNTMADESLITGEAMPVTKKPGSTVIAGSINAHGSVLIKATHVGNDTTLAQIVKLVEEAQMSKAPIQQLADRFSGYFVPFIIIMSTLTLVVWIVIGFIDFGVVQRYFPNPNKHISQTEVIIRFAFQTSITVLCIACPCSLGLATPTAVMVGTGVAAQNGILIKGGKPLEMAHKIKTVMFDKTGTITHGVPRVMRVLLLGDVATLPLRKVLAVVGTAEASSEHPLGVAVTKYCKEELGTETLGYCTDFQAVPGCGIGCKVSNVEGILAHSERPLSAPASHLNEAGSLPAEKDAVPQTFSVLIGNREWLRRNGLTISSDVSDAMTDHEMKGQTAILVAIDGVLCGMIAIADAVKQEAALAVHTLQSMGVDVVLITGDNRKTARAIATQVGINKVFAEVLPSHKVAKVQELQNKGKKVAMVGDGVNDSPALAQADMGVAIGTGTDVAIEAADVVLIRNDLLDVVASIHLSKRTVRRIRINLVLALIYNLVGIPIAAGVFMPIGIVLQPWMGSAAMAASSVSVVLSSLQLKCYKKPDLERYEAQAHGHMKPLTASQVSVHIGMDDRWRDSPRATPWDQVSYVSQVSLSSLTSDKPSRHSAAADDDGDKWSLLLNGRDEEQYI
# B5: Membrane-associated guanylate kinase, WW and PDZ domain-containing protein 1, Q96QZ7 (parent)
# chain: MSKVIQKKNHWTSRVHECTVKRGPQGELGVTVLGGAEHGEFPYVGAVAAVEAAGLPGGGEGPRLGEGELLLEVQGVRVSGLPRYDVLGVIDSCKEAVTFKAVRQGGRLNKDLRHFLNQRFQKGSPDHELQQTIRDNLYRHAVPCTTRSPREGEVPGVDYNFLTVKEFLDLEQSGTLLEVGTYEGNYYGTPKPPSQPVSGKVITTDALHSLQSGSKQSTPKRTKSYNDMQNAGIVHAENEEEDDVPEMNSSFTADSGEQEEHTLQETALPPVNSSIIAAPITDPSQKFPQYLPLSAEDNLGPLPENWEMAYTENGEVYFIDHNTKTTSWLDPRCLNKQQKPLEECEDDEGVHTEELDSELELPAGWEKIEDPVYGIYYVDHINRKTQYENPVLEAKRKKQLEQQQQQQQQQQQQQQQQQQQQTEEWTEDHSALVPPVIPNHPPSNPEPAREVPLQGKPFFTRNPSELKGKFIHTKLRKSSRGFGFTVVGGDEPDEFLQIKSLVLDGPAALDGKMETGDVIVSVNDTCVLGHTHAQVVKIFQSIPIGASVDLELCRGYPLPFDPDDPNTSLVTSVAILDKEPIIVNGQETYDSPASHSSKTGKVNGMKDARPSSPADVASNSSHGYPNDTVSLASSIATQPELITVHIVKGPMGFGFTIADSPGGGGQRVKQIVDSPRCRGLKEGDLIVEVNKKNVQALTHNQVVDMLVECPKGSEVTLLVQRGGLPVPKKSPKSQPLERKDSQNSSQHSVSSHRSLHTASPSHSTQVLPEFPPAEAQAPDQTDSSGQKKPDPFKIWAQSRSMYENRPMSPSPASGLSKGEREREINSTNFGECPIPDYQEQDIFLWRKETGFGFRILGGNEPGEPIYIGHIVPLGAADTDGRLRSGDELICVDGTPVIGKSHQLVVQLMQQAAKQGHVNLTVRRKVVFAVPKTENEVPSPASSHHSSNQPASLTEEKRTPQGSQNSLNTVSSGSGSTSGIGSGGGGGSGVVSTVVQPYDVEIRRGENEGFGFVIVSSVSRPEAGTTFAGNACVAMPHKIGRIIEGSPADRCGKLKVGDRILAVNGCSITNKSHSDIVNLIKEAGNTVTLRIIPGDESSNATLLTNAEKIATITTTHTPSQQGTQETRNTTKPKQESQFEFKAPQATQEQDFYTVELERGAKGFGFSLRGGREYNMDLYVLRLAEDGPAERCGKMRIGDEILEINGETTKNMKHSRAIELIKNGGRRVRLFLKRGDGSVPEYDPSSDRHGPATGPQGVPEVRAGPDRRQHPSLESSYPPDLHKSSPHGEKRAHARDPKGSREYSRQPNEHHTWNGTSRKPDSGACRPKDRAPEGRRDAQAERAAAANGPKRRSPEKRREGTRSADNTLERREKHEKRRDVSPERRRERSPTRRRDGSPSRRRRSLERLLEQRRSPERRRGGSPERRAKSTDRRRARSPERRRERSLDKRNREDRASHREREEANLKQDAGRSSRHPPEQRRRPYKECSTDLSI
# B6: Phosphoglycerate kinase 1, P00558 (parent)
# chain: MSLSNKLTLDKLDVKGKRVVMRVDFNVPMKNNQITNNQRIKAAVPSIKFCLDNGAKSVVLMSHLGRPDGVPMPDKYSLEPVAVELKSLLGKDVLFLKDCVGPEVEKACANPAAGSVILLENLRFHVEEEGKGKDASGNKVKAEPAKIEAFRASLSKLGDVYVNDAFGTAHRAHSSMVGVNLPQKAGGFLMKKELNYFAKALESPERPFLAILGGAKVADKIQLINNMLDKVNEMIIGGGMAFTFLKVLNNMEIGTSLFDEEGAKIVKDLMSKAEKNGVKITLPVDFVTADKFDENAKTGQATVASGIPAGWMGLDCGPESSKKYAEAVTRAKQIVWNGPVGVFEWEAFARGTKALMDEVVKATSRGCITIIGGGDTATCCAKWNTEDKVSHVSTGGGASLELLEGKVLPGVDALSNI
# B7: Malate dehydrogenase, P80040 (parent)
# chain: MRKKISIIGAGFVGSTTAHWLAAKELGDIVLLDFVEGVPQGKALDLYEASPIEGFDVRVTGTNNYADTANSDVIVVTSGAPRKPGMSREDLIKVNADITRACISQAAPLSPNAVIIMVNNPLDAMTYLAAEVSGFPKERVIGQAGVLDAARYRTFIAMEAGVSVEDVQAMLMGGHGDEMVPLPRFSTISGIPVSEFIAPDRLAQIVERTRKGGGEIVNLLKTGSAYYAPAAATAQMVEAVLKDKKRVMPVAAYLTGQYGLNDIYFGVPVILGAGGVEKILELPLNEEEMALLNASAKAVRATLDTLKSL
# B8: Phosphocarrier protein HPr, P08877 (parent)
# chain: MAQKTFKVTADSGIHARPATVLVQTASKYDADVNLEYNGKTVNLKSIMGVMSLGIAKGAEITISASGADENDALNALEETMKSEGLGE
# B9: DNA-Binding protein, P69542 (parent)
# chain: MIKVEIKPSQAQFTTRSGVSRQGKPYSLNEQLCYVDLGNEYPVLVKITLDEGQPAYAPGLYTVHLSSFKVGQFGSLMIDRLRLVPAK
# B10: DNA-binding transcriptional dual regulator CRP, P0ACJ8 (parent)
# chain: MVLGKPQTDPTLEWFLSHCHIHKYPSKSTLIHQGEKAETLYYIVKGSVAVLIKDEEGKEMILSYLNQGDFIGELGLFEEGQERSAWVRAKTACEVAEISYKKFRQLIQVNPDILMRLSAQMARRLQVTSEKVGNLAFLDVTGRIAQTLLNLAKQPDAMTHPDGMQIKITRQEIGQIVGCSRETVGRILKMLEDQNLISAHGKTIVVYGTR
# Variants of: B1
# Details: Rattus norvegicus; pH 6.5; 20 °C; Urea; CD; NaH2PO4 20 mM; NaCl 0.1 M; reversible: Yes; structure 1GSB; whole UniProt chain shown
Variant,denaturant m value [kcal/mol/M],denaturant midpoint (higher = more stable) [M],unfolding free energy [kcal/mol]
F57S R82A,2,4.6,10.1

# Variants of: B2
# Details: Homo sapiens; pH 7.5; 23 °C; GdnHCl; Fluorescence; Tris-HCl 50 mM; reversible: yes; structure 1BOY; whole UniProt chain shown
Variant,ddG of mutation (higher = less stable) [kcal/mol],denaturant midpoint (higher = more stable) [M],unfolding free energy [kcal/mol]
R232W,-0.6,1.37,6.9

# Variants of: B3
# Details: Thermus thermophilus (strain ATCC 27634 / DSM 579 / HB8); pH 7; Thermal; CD; Phosphate 10 mM; reversible: No; structure 1TFE; whole UniProt chain shown
Variant,Tm [°C],"change of melting temperature, mutant - wild type (higher = more stable) [°C]"
C190A,105,-10

# Variants of: B4
# Details: Homo sapiens; pH 7; 20 °C; Urea; CD; NaH2PO4 50 mM; transition: 2; reversible: No; structure 2ARF; whole UniProt chain shown
Variant,ddG of mutation (higher = less stable) [kcal/mol],denaturant midpoint (higher = more stable),unfolding free energy
H1069Q,0.96,4.7 M and 4 M,5.74 kcal/mol and 6.21 kcal/mol

# Variants of: B5
# Details: Homo sapiens; pH 7; Thermal; CD; Tris-HCl 20 mM; NaCl 100 mM; structure 2ZAJ; whole UniProt chain shown
Variant,unfolding enthalpy (calorimetric),unfolding enthalpy (van 't Hoff)
D370S,14.4 kcal/mol and 9.15 kcal/mol,9.37 kcal/mol and 9.15 kcal/mol

# Variants of: B6
# Details: Homo sapiens; pH 7.4; 25 °C; Urea; CD; HEPES 20mM; NaCl 200 mM; transition: 2; reversible: Yes; structure 2WZB; whole UniProt chain shown
Variant,ddG of mutation (higher = less stable) [kcal/mol],denaturant m value [kcal/mol/M],denaturant midpoint (higher = more stable) [M],unfolding free energy [kcal/mol]
E252A,0.7,3.2,2.37,7.6
T378P,4.8,1.5,2.28,3.5

# Variants of: B7
# Details: Chloroflexus aurantiacus (strain ATCC 29366 / DSM 635 / J-10-fl); pH 7.5; Thermal; CD; potassium phosphate 10 mM; reversible: No; structure 1GUY; whole UniProt chain shown
Variant,Tm [°C],"change of melting temperature, mutant - wild type (higher = more stable) [°C]"
T187C,82.8,15

# Variants of: B8
# Details: Bacillus subtilis (strain 168); pH 7; 30 °C; Urea; CD; Potassium phosphate 50 mM; reversible: yes; structure 2HPR; whole UniProt chain shown
Variant,ddG of mutation (higher = less stable) [kcal/mol],denaturant midpoint (higher = more stable) [M]
S46D,-0.74,4.63

# Same assay, conditions: Bacillus subtilis (strain 168); pH 7; 73.6 °C; Thermal; CD; Potassium phosphate 50 mM; reversible: yes; structure 2HPR; whole UniProt chain shown
row,Variant,ddG of mutation (higher = less stable) [kcal/mol]
1,S46D,-0.7

# Variants of: B9
# Details: Enterobacteria phage fd; pH 7; 25 °C; GdnHCl; CD; MOPS 50 mM; NaCl 100 mM; reversible: yes; structure 1VQB; whole UniProt chain shown
row,Variant,unfolding free energy [kcal/mol]
1,T62V,1.3
2,T48V,0
3,E30M,0.6
4,K24V,0.8
5,K69M,0.1
6,L32W,2.8

# Variants of: B10
# Details: Escherichia coli (strain K12); pH 7.9; 20 °C; Thermal; CD; Tris-HCl 50 mM; KCl 100 mM; reversible: yes; structure 1G6N; whole UniProt chain shown
Variant,ddG of mutation (higher = less stable) [kcal/mol],unfolding free energy [kcal/mol]
S129A,0.26,7.06
